# Measurements taken from IntAct's records for PubMed 23222643.
# B1: Formin-like protein 3 (Mus musculus), Q6ZPF4-1 (parent)
# chain: MGNLESTDGGPGEPPSVPLLLPPGKTPMPEPCELEERFALVLSSMNLPPDKARLLRQYDNEKKWDLICDQERFQVKNPPHTYIQKLQSFLDPNVTRKKFRRRVQESTKVLRELEISLRTNHIGWVREFLNDENKGLDVLVDYLSFAQCSVMFDFEGLESGDDGAFDKLRSWSRSIEDLQPPNALSAPFTNSLARSARQSVLRYSTLPGRRALKNSRLVSQKDDVHVCILCLRAIMNYQYGFNLVMSHPHAVNEIALSLNNKNPRTKALVLELLAAVCLVRGGHEIILAAFDNFKEVCKELHRFEKLMEYFRNEDSNIDFMVACMQFINIVVHSVEDMNFRVHLQYEFTKLGLEEFLQKSRHTESEKLQVQIQAYLDNVFDVGGLLEDAETKNVALEKVEELEEHVSHLTEKLLDLENENMMRVAELEKQLLQREKELESIKETYENTSNQVHTLRRLIKEKEEAFQRRCHLEPSARGLESMGGEALARVGPTELTEGIPPSDLDLLAPAPPTEETLPLPPPPAPPLPPPPPPLPDKCPPAPPLPGAAPSVVLTVGLSAIRIKKPIKTKFRLPVFNWTALKPNQINGTVFSELDDEKILEDLDLDRFEELFKTKAQGPALDLICSKNKTAQKAASKVTLLEANRAKNLAITLRKAGRSAEEICRAIHTFDLQTLPVDFVECLMRFLPTEAEVKLLRQYERERQPLEELAAEDRFMLLFSKVERLTQRMAGMAFLGNFQDNLQMLTPQLNAIIAASASVKSSQKLKQMLEIILALGNYMNSSKRGAVYGFKLQSLDLLLDTKSTDRKMTLLHFIALTVKEKYPELANFWQELHFVEKAAAVSLENVLLDVKELGRGMELIRRECSIHDNSVLRNFLSTNEGKLDKLQRDAKTAEEAYNAVVRYFGESPKTTPPSVFFPVFVRFIRSYKEAEQENEARKKQEEVMREKQLAQEAKKLDAKTPSQRNKWQQQELIAELRRRQAKEHRPVYEGKDGTIEDIITVLKSVPFTARTAKRGSRFFCDAAHHDESNC
# Variants of: B1
# Details: with acts_rabit ACTA1, P68135
row,effect of a mutation on the interaction,Variant
1,decreasing interaction strength,I649A
